Source: patent publication US20240018252A1 (Pfizer, published 2024)
Changes are numbered by the printed parent chain.

B1: L3.PY/H2.DY (antibody, V domains shown)
VH: EVQLLESGGGLVQPGGSLRLSCAASGFTFGSYAMTWVRQAPGKGLEWVSAIDYSGGNTFYADSVKGRFTISRDNSKNTLYLQMNSLRAEDTAVYYCARVSPIASGMDYWGQGTLVTVSS
VL: EIVLTQSPGTLSLSPGERATLSCRASQSVSSSYLAWYQQKPGQAPRLLIYGASSRATGIPDRFSGSGSGTDFTLTISRLEPEDFAVYYCQHYPYPPSFTFGQGTKVEIK
notes: IgG in the assay
B2: L3.PY/H2.QR (antibody, V domains shown)
VH: B1 VH with D52S, Y53G, S63Q, V64R
VL: B1 VL
notes: IgG in the assay
B3: L3.PY/L1.PH/H2.HA (antibody, V domains shown)
VH: B1 VH with D52S, Y53H, S54A
VL: B1 VL with S31P, S32H
notes: IgG in the assay
B4: L3.PY/L3.KY/H2.QR (antibody, V domains shown)
VH: B1 VH with D52S, Y53G, S63Q, V64R
VL: B1 VL with Q90K, H91Y
notes: IgG in the assay
B5: L3.PY/L1.AH/H3.TAQ (antibody, V domains shown)
VH: B1 VH with D52S, Y53G, A97T, S104A, G105Q
VL: B1 VL with S31A, S32H
notes: IgG in the assay
B6: L3.PY/L1.AH/H2.HA (antibody, V domains shown)
VH: B1 VH with D52S, Y53H, S54A
VL: B1 VL with S31A, S32H
notes: IgG in the assay
B7: L3.PY/H2.HA (antibody, V domains shown)
VH: B1 VH with D52S, Y53H, S54A
VL: B1 VL
notes: IgG in the assay
B8: L3.PY/L1.FF/H2.HA (antibody, V domains shown)
VH: B1 VH with D52S, Y53H, S54A
VL: B1 VL with S32F, Y33F
notes: IgG in the assay
B9: L3.PY/L3.KY/H2.DY (antibody, V domains shown)
VH: B1 VH
VL: B1 VL with Q90K, H91Y
notes: IgG in the assay
B10: L3.PY/L1.PH/H3.TAQ (antibody, V domains shown)
VH: B1 VH with D52S, Y53G, A97T, S104A, G105Q
VL: B1 VL with S31P, S32H
notes: IgG in the assay
B11: L3.PY/H3.AE (antibody, V domains shown)
VH: B1 VH with D52S, Y53G, S104A, G105E
VL: B1 VL
notes: IgG in the assay
B12: L3.PY/L3.KY/H3.TAQ (antibody, V domains shown)
VH: B1 VH with D52S, Y53G, A97T, S104A, G105Q
VL: B1 VL with Q90K, H91Y
notes: IgG in the assay
B13: L3.PY/L3.KF/H2.LT (antibody, V domains shown)
VH: B1 VH with D52S, Y53L, S54T
VL: B1 VL with Q90K, H91F
notes: IgG in the assay
B14: L3.PY/L3.KF/H2.DY (antibody, V domains shown)
VH: B1 VH
VL: B1 VL with Q90K, H91F
notes: IgG in the assay
B15: L3.PY/L1.FF/H3.YA (antibody, V domains shown)
VH: B1 VH with D52S, Y53G, A103Y, S104A
VL: B1 VL with S32F, Y33F
notes: IgG in the assay
B16: L3.PY/L1.PH/H3.AQ (antibody, V domains shown)
VH: B1 VH with D52S, Y53G, S104A, G105Q
VL: B1 VL with S31P, S32H
notes: IgG in the assay
B17: L3.PY/L3.KY/H2.YQ (antibody, V domains shown)
VH: B1 VH with D52S, S54Q
VL: B1 VL with Q90K, H91Y
notes: IgG in the assay
B18: L3.PY/L1.FF/H2.QR (antibody, V domains shown)
VH: B1 VH with D52S, Y53G, S63Q, V64R
VL: B1 VL with S32F, Y33F
notes: IgG in the assay
B19: L3.PY/L3.KF/H3.TAQ (antibody, V domains shown)
VH: B1 VH with D52S, Y53G, A97T, S104A, G105Q
VL: B1 VL with Q90K, H91F
notes: IgG in the assay
B20: L3.PY/L3.KF/H3.AQ (antibody, V domains shown)
VH: B1 VH with D52S, Y53G, S104A, G105Q
VL: B1 VL with Q90K, H91F
notes: IgG in the assay
B21: L3.PY/L1.PH/H2.QR (antibody, V domains shown)
VH: B1 VH with D52S, Y53G, S63Q, V64R
VL: B1 VL with S31P, S32H
notes: IgG in the assay
B22: L3.PY/L1.PH/H3.AE (antibody, V domains shown)
VH: B1 VH with D52S, Y53G, S104A, G105E
VL: B1 VL with S31P, S32H
notes: IgG in the assay
B23: L3.PY/L3.KF/H3.YA (antibody, V domains shown)
VH: B1 VH with D52S, Y53G, A103Y, S104A
VL: B1 VL with Q90K, H91F
notes: IgG in the assay
B24: L3.PY/L1.AH/H2.LT (antibody, V domains shown)
VH: B1 VH with D52S, Y53L, S54T
VL: B1 VL with S31A, S32H
notes: IgG in the assay
B25: L3.PY/L3.KY/H3.YA (antibody, V domains shown)
VH: B1 VH with D52S, Y53G, A103Y, S104A
VL: B1 VL with Q90K, H91Y
notes: IgG in the assay
B26: L3.PY/L1.AH/H2.QL (antibody, V domains shown)
VH: B1 VH with D52S, Y53G, S63Q, V64L
VL: B1 VL with S31A, S32H
notes: IgG in the assay
B27: L3.PY/L1.AH/H2.DY (antibody, V domains shown)
VH: B1 VH
VL: B1 VL with S31A, S32H
notes: IgG in the assay
B28: L3.PY/L3.KY/H2.QL (antibody, V domains shown)
VH: B1 VH with D52S, Y53G, S63Q, V64L
VL: B1 VL with Q90K, H91Y
notes: IgG in the assay
B29: L3.PY/L3.KY/H2.HA (antibody, V domains shown)
VH: B1 VH with D52S, Y53H, S54A
VL: B1 VL with Q90K, H91Y
notes: IgG in the assay
B30: L3.PY/L3.KF/H2.YQ (antibody, V domains shown)
VH: B1 VH with D52S, S54Q
VL: B1 VL with Q90K, H91F
notes: IgG in the assay
B31: L3.PY/H3.AQ (antibody, V domains shown)
VH: B1 VH with D52S, Y53G, S104A, G105Q
VL: B1 VL
notes: IgG in the assay
B32: L3.PY/L3.KY/H2.LT (antibody, V domains shown)
VH: B1 VH with D52S, Y53L, S54T
VL: B1 VL with Q90K, H91Y
notes: IgG in the assay
B33: L3.PY/L3.KF/H2.QL (antibody, V domains shown)
VH: B1 VH with D52S, Y53G, S63Q, V64L
VL: B1 VL with Q90K, H91F
notes: IgG in the assay
B34: L3.PY/L1.FF/H2.QL (antibody, V domains shown)
VH: B1 VH with D52S, Y53G, S63Q, V64L
VL: B1 VL with S32F, Y33F
notes: IgG in the assay
B35: L3.PY/H2.QL (antibody, V domains shown)
VH: B1 VH with D52S, Y53G, S63Q, V64L
VL: B1 VL
notes: IgG in the assay
B36: L3.PY/L3.KF/H3.AE (antibody, V domains shown)
VH: B1 VH with D52S, Y53G, S104A, G105E
VL: B1 VL with Q90K, H91F
notes: IgG in the assay
B37: L3.PY/L1.FF/H3.AQ (antibody, V domains shown)
VH: B1 VH with D52S, Y53G, S104A, G105Q
VL: B1 VL with S32F, Y33F
notes: IgG in the assay
B38: L3.PY/H2.YQ (antibody, V domains shown)
VH: B1 VH with D52S, S54Q
VL: B1 VL
notes: IgG in the assay
B39: L3.PY/L1.FF/H3.TAQ (antibody, V domains shown)
VH: B1 VH with D52S, Y53G, A97T, S104A, G105Q
VL: B1 VL with S32F, Y33F
notes: IgG in the assay
B40: L3.PY/L1.FF/H3.AE (antibody, V domains shown)
VH: B1 VH with D52S, Y53G, S104A, G105E
VL: B1 VL with S32F, Y33F
notes: IgG in the assay
B41: L3.PY/H3.YA (antibody, V domains shown)
VH: B1 VH with D52S, Y53G, A103Y, S104A
VL: B1 VL
notes: IgG in the assay
B42: L3.PY/L1.FF/H2.YQ (antibody, V domains shown)
VH: B1 VH with D52S, S54Q
VL: B1 VL with S32F, Y33F
notes: IgG in the assay
B43: L3.PY/H3.TAQ (antibody, V domains shown)
VH: B1 VH with D52S, Y53G, A97T, S104A, G105Q
VL: B1 VL
notes: IgG in the assay; also called P6E01 L3PY/H3TAQ
B44: L3.PY/H2.LT (antibody, V domains shown)
VH: B1 VH with D52S, Y53L, S54T
VL: B1 VL
notes: IgG in the assay
B45: L3.PY/L1.FF/H2.DY (antibody, V domains shown)
VH: B1 VH
VL: B1 VL with S32F, Y33F
notes: IgG in the assay
B46: L3.PY/L1.FF/H2.LT (antibody, V domains shown)
VH: B1 VH with D52S, Y53L, S54T
VL: B1 VL with S32F, Y33F
notes: IgG in the assay

molecular target: T1, human BCMA (human, UniProt Q02223 1-54); experiment: SPR, immobilised IgG, 37° C
T1 construct: also called huBCMA; hBCMA
T1 sequence: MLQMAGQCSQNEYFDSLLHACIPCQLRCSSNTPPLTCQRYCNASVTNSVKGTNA

Binder | T½ [min]
B1 | 8.37
B2 | 9.75
B3 | 9.99
B4 | 11.7
B5 | 9.68
B6 | 6.37
B7 | 7.89
B8 | 5.29
B9 | 18
B10 | 5.43
B11 | 8.32
B12 | 17.8
B13 | 6.05
B14 | 6.35
B15 | 6.41
B16 | 7.27
B17 | 7.02
B18 | 6.54
B19 | 7.12
B20 | 5.09
B21 | 4.89
B22 | 8.61
B23 | 7.85

Binder | T½ [min]
B24 | 9.38
B25 | 12.7
B26 | 7.22
B27 | 7.62
B28 | 5.56
B29 | 7.1
B30 | 5.18
B31 | 6.69
B32 | 12.8
B33 | 9.26
B34 | 8.28
B35 | 5.31
B36 | 7.44
B37 | 7.51
B38 | 7.41
B39 | 6.12
B40 | 4.39
B41 | 9.82
B42 | 7.61
B43 | 10.1
B44 | 8.95
B45 | 4.27
B46 | 6.92

molecular target: T2, cyBCMA (cynomolgus, UniProt A0A2K5UD97 1-53); experiment: SPR, immobilised IgG, 37° C
T2 construct: Soluble analyte in SPR; construct not described; also called cyno BCMA
T2 sequence (A0A2K5UD97 entry or part of it): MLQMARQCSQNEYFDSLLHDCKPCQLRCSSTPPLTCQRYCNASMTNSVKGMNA

Binder | T½ [min]
B1 | 1.87
B2 | 1.76
B6 | 2.63
B7 | 1.53
B11 | 2.29
B24 | 3.91
B26 | 1.21
B27 | 2.56
B31 | 2.14
B35 | 0.91
B38 | 1.86
B41 | 2.14
B43 | 2.64
B44 | 1.53
